± gives the standard deviation of the averaged measurements.
Assay: total protein half-life in vivo (active degradation + dilution); higher = more stable protein
[1] = E. coli NCM3722 delta-clpP delta-lon delta-hslV, growth: N-lim chemostat, doubling time 6 h
[2] = E. coli NCM3722 delta-clpP, growth: N-lim chemostat, doubling time 6 h
[3] = E. coli NCM3722 delta-hslV, growth: N-lim chemostat, doubling time 6 h
[4] = E. coli NCM3722 delta-lon, growth: N-lim chemostat, doubling time 6 h
[5] = E. coli NCM3722 delta-smpB, growth: N-lim chemostat, doubling time 6 h
[6] = wild type E. coli NCM3722, growth: C-lim chemostat, doubling time 3 h
[7] = wild type E. coli NCM3722, growth: C-lim chemostat, doubling time 6 h
[8] = wild type E. coli NCM3722, growth: N-lim chemostat, doubling time 6 h
[9] = wild type E. coli NCM3722, growth: N-lim chemostat, doubling time 12 h
[10] = wild type E. coli NCM3722, growth: P-lim chemostat, doubling time 6 h
[11] = wild type E. coli NCM3722, growth: P-lim chemostat, doubling time 12 h
[12] = wild type E. coli NCM3722, growth: C-lim chemostat, doubling time 12 h

Row | Sequence | total protein half-life in vivo [1] [h] | total protein half-life in vivo [2] [h] | total protein half-life in vivo [3] [h] | total protein half-life in vivo [4] [h] | total protein half-life in vivo [5] [h] | total protein half-life in vivo [6] [h] | total protein half-life in vivo [7] [h] | total protein half-life in vivo [8] [h] | total protein half-life in vivo [9] [h] | total protein half-life in vivo [10] [h] | total protein half-life in vivo [11] [h] | total protein half-life in vivo [12] [h]
1 | MGQEKLYIEKELSWLSFNERVLQEAADKSNPLIERMRFLGIYSNNLDEFYKVRFAELKRRIIISEEQGSNSHSRHLLGKIQSRVLKADQEFDGLYNELLLEMARNQIFLINERQLSVNQQNWLRHYFKQYLRQHITPILINPDTDLVQFLKDDYTYLAVEIIRGDTIRYALLEIPSDKVPRFVNLPPEAPRRRKPMILLDNILRYCLDDIFKGFFDYDALNAYSMKMTRDAEYDLVHEMEASLMELMSSSLKQRLTAEPVRFVYQRDMPNALVEVLREKLTISRYDSIVPGGRYHNFKDFINFPNVGKANLVNKPLPRLRHIWFDKAQFRNGFDAIRERDVLLYYPYHTFEHVLELLRQASFDPSVLAIKINIYRVAKDSRIIDSMIHAAHNGKKVTVVVELQARFDEEANIHWAKRLTEAGVHVIFSAPGLKIHAKLFLISRKENGEVVRYAHIGTGNFNEKTARLYTDYSLLTADARITNEVRRVFNFIENPYRPVTFDYLMVSPQNSRRLLYEMVDREIANAQQGLPSGITLKLNNLVDKGLVDRLYAASSSGVPVNLLVRGMCSLIPNLEGISDNIRAISIVDRYLEHDRVYIFENGGDKKVYLSSADWMTRNIDYRIEVATPLLDPRLKQRVLDIIDILFSDTVKARYIDKELSNRYVPRGNRRKVRAQLAIYDYIKSLEQPE [P0A7B1] | 6.92 ± 0.14 | 6.36 ± 0.29 | 6.79 ± 0.42 | 6.1 ± 0.063 | 6.038 ± 0.039 | 3.29 ± 0.35 | 6.27 ± 0.57 | 5.94 ± 0.53 | 13 ± 1.2 | 6.65 ± 0.23 | 13 ± 1.4 | 
2 | MGQRIPVTLGNIAPLSLRPFQPGRIALVCEGGGQRGIFTAGVLDEFMRAQFNPFDLYLGTSAGAQNLSAFICNQPGYARKVIMRYTTKREFFDPLRFVRGGNLIDLDWLVEATASQMPLQMDTAARLFDSGKSFYMCACRQDDYAPNYFLPTKQNWLDVIRASSAIPGFYRSGVSLEGINYLDGGISDAIPVKEAARQGAKTLVVIRTVPSQMYYTPQWFKRMERWLGDSSLQPLVNLVQHHETSYRDIQQFIEKPPGKLRIFEIYPPKPLHSIALGSRIPALREDYKLGRLCGRYFLATVGKLLTEKAPLTRHLVPVVTPESIVIPPAPVANDTLVAEVSDAPQANDPTFNNEDLA | 5.99 ± 1.5 | 1.8805 ± 0.0012 | 1.31 ± 0.025 | 1.89 ± 0.25 | 1.185 ± 0.0061 | 1.89 ± 0.15 | 3.889 ± 0.011 | 1.45 ± 0.16 | 1.77 ± 0.024 | 2.12 ± 0.31 | 4.69 ± 0.97 | 4.59 ± 0.59
3 | MGRILLDLSNEVIKQLDDLEVQRNLPRADLLREAVDQYLINQSQTARTSVPGIWQGCEEDGVEYQRKLREEW [P0AFU6] |  | 6.89 |  |  |  |  |  |  |  |  |  | 
4 | MGSNIHGISCTANNYLKQAWNDIKNEYEKNQTYSITLFENTLVCFMRLYNELRRKVNEEDTPCLECESLEKEFEEMQNDNDLSLFMRILRTNDTQIYSGVSGGITYTIQYVRDIDIVRVSLPGRASESITDFKGYYWYNFMEYIENINACDDVFSEYCFDDENISVQPERINTPGISDLDSDIDLSGISFIQRETNQALGLKYAPVDGDGYCLLRAILVLKQHDYSWALVSYKMQKEVYNEFIKMVDKKTIEALVDTAFYNLREDVKTLFGVDLQSDNQIQGQSSLMSWSFLFFKKQFIDSCLNNEKCILHLPEFIFNDNKNLLALDTDTSDRIKAVKNFLVVLSDSICSLFIVNSNVASISLGNESFSTDEDLEYGYLMNTGNHYDVYLPPELFAQAYKLNNKEMNAQLDYLNRYAI |  |  |  | 5.18 |  |  |  |  |  |  |  | 
5 | MGSPSLYSARKTTLALAVALSFAWQAPVFAHGGEAHMVPMDKTLKEFGADVQWDDYAQLFTLIKDGAYVKVKPGAQTAIVNGQPLALQVPVVMKDNKAWVSDTFINDVFQSGLDQTFQVEKRPHPLNALTADEIKQAVEIVKASADFKPNTRFTEISLLPPDKEAVWAFALENKPVDQPRKADVIMLDGKHIIEAVVDLQNNKLLSWQPIKDAHGMVLLDDFASVQNIINNSEEFAAAVKKRGITDAKKVITTPLTVGYFDGKDGLKQDARLLKVISYLDVGDGNYWAHPIENLVAVVDLEQKKIVKIEEGPVVPVPMTARPFDGRDRVAPAVKPMQIIEPEGKNYTITGDMIHWRNWDFHLSMNSRVGPMISTVTYNDNGTKRKVMYEGSLGGMIVPYGDPDIGWYFKAYLDSGDYGMGTLTSPIARGKDAPSNAVLLNETIADYTGVPMEIPRAIAVFERYAGPEYKHQEMGQPNVSTERRELVVRWISTVGNYDYIFDWIFHENGTIGIDAGATGIEAVKGVKAKTMHDETAKDDTRYGTLIDHNIVGTTHQHIYNFRLDLDVDGENNSLVAMDPVVKPNTAGGPRTSTMQVNQYNIGNEQDAAQKFDPGTIRLLSNPNKENRMGNPVSYQIIPYAGGTHPVAKGAQFAPDEWIYHRLSFMDKQLWVTRYHPGERFPEGKYPNRSTHDTGLGQYSKDNESLDNTDAVVWMTTGTTHVARAEEWPIMPTEWVHTLLKPWNFFDETPTLGALKKDK | 4.75 |  |  |  | 5.04 ± 0.69 | 2.69 | 6.4 ± 0.067 |  | 11.8 |  | 11.1 ± 0.71 | 6.83
